Holding throughout (assay): EC50 of free RNA motif oligo competing protein binding to immobilised probe
The target of data set [1] is SRRM2 (UniProt Q9UQ35). The essentials:
(§1)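 Free RNA oligos (0 nM to 30 μM) competed for 1 h at 4°C in HEK293-FT lysate (2.5 mg protein/well) before a 30 min, 4°C pulldown with the same oligos on NHS-Sepharose beads. Bound proteins were quantified by label-free LC-MS/MS and normalised to the control. Kd was found by multiplying EC50, from a four-parameter log-logistic fit, by a protein-dependent depletion factor.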

For data set [2], the target named is T1, SYMPK (UniProt Q92797).
T1 sequence: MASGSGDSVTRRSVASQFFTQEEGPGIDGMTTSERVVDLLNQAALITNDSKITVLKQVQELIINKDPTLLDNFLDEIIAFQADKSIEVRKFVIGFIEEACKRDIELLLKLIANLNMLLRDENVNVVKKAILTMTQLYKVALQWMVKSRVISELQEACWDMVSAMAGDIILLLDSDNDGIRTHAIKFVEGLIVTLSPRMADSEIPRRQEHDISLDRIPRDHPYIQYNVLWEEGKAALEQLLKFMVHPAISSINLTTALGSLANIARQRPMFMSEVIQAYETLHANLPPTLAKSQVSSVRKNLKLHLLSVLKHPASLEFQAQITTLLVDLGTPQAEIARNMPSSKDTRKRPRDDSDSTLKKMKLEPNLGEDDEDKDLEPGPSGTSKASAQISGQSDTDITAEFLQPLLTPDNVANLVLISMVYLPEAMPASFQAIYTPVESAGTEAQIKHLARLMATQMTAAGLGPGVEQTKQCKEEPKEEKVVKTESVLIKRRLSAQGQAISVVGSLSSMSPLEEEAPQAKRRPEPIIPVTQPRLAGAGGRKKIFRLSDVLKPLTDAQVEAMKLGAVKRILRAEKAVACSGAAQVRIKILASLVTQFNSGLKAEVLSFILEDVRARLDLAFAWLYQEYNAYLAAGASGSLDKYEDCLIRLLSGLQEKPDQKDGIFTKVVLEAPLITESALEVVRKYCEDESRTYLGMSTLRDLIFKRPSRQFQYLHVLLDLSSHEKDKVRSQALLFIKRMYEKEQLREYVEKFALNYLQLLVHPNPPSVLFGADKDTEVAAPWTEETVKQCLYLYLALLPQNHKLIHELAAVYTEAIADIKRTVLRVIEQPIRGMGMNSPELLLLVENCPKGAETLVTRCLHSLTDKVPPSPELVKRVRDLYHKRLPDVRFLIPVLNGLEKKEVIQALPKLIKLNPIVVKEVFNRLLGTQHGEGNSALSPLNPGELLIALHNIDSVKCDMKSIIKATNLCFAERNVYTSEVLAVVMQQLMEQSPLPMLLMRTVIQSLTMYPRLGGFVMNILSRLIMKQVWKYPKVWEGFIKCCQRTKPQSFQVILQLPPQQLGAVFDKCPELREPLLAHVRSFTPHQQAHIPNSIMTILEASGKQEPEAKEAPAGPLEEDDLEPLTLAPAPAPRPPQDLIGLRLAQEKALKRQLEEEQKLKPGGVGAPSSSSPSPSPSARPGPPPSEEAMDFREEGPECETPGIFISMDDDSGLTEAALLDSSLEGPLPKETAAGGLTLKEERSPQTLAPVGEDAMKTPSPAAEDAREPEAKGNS
The procedure, abridged: as §1

Data set [3] concerns the target T2, YTHDC2 (UniProt Q9H6S0).
T2 sequence: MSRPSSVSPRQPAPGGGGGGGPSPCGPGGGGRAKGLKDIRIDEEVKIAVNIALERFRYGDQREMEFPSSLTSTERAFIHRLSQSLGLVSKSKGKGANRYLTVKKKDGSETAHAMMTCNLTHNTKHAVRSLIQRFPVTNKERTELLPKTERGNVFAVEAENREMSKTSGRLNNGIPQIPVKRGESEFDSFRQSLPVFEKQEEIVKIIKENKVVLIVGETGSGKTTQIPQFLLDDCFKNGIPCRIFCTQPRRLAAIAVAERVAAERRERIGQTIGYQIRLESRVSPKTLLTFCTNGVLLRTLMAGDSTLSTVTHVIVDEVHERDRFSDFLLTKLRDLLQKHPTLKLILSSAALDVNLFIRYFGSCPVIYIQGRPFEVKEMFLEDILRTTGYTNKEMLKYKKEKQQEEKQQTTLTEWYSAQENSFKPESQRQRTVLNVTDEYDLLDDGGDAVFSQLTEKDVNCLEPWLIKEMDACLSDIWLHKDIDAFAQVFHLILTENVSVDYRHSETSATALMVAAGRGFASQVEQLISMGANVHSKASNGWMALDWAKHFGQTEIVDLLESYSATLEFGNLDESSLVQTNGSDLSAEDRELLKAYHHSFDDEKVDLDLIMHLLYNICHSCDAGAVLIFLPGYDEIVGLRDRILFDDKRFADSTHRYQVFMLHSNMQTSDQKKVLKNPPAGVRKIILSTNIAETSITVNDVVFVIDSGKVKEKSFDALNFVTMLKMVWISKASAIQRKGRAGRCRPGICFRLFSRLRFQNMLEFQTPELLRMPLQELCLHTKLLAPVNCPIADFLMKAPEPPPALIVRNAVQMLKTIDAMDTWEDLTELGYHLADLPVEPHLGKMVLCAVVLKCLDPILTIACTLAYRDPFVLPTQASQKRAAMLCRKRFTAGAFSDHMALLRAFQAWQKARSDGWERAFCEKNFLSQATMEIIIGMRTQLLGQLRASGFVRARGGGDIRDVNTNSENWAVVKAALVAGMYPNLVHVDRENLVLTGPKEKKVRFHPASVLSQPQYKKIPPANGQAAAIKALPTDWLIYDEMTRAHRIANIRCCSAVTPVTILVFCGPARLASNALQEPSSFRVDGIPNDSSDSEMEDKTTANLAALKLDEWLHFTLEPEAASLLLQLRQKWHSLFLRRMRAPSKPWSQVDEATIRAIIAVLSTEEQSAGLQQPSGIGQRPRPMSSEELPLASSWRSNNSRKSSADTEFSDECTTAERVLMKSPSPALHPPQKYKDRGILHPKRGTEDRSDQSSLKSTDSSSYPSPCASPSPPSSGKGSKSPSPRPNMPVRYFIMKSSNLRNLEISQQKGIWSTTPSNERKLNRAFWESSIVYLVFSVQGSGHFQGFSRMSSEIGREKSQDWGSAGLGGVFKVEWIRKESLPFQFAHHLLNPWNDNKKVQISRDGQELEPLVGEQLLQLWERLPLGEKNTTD
The procedure, abridged: as §1

SRRM2, sequence (Q9UQ35 whole entry): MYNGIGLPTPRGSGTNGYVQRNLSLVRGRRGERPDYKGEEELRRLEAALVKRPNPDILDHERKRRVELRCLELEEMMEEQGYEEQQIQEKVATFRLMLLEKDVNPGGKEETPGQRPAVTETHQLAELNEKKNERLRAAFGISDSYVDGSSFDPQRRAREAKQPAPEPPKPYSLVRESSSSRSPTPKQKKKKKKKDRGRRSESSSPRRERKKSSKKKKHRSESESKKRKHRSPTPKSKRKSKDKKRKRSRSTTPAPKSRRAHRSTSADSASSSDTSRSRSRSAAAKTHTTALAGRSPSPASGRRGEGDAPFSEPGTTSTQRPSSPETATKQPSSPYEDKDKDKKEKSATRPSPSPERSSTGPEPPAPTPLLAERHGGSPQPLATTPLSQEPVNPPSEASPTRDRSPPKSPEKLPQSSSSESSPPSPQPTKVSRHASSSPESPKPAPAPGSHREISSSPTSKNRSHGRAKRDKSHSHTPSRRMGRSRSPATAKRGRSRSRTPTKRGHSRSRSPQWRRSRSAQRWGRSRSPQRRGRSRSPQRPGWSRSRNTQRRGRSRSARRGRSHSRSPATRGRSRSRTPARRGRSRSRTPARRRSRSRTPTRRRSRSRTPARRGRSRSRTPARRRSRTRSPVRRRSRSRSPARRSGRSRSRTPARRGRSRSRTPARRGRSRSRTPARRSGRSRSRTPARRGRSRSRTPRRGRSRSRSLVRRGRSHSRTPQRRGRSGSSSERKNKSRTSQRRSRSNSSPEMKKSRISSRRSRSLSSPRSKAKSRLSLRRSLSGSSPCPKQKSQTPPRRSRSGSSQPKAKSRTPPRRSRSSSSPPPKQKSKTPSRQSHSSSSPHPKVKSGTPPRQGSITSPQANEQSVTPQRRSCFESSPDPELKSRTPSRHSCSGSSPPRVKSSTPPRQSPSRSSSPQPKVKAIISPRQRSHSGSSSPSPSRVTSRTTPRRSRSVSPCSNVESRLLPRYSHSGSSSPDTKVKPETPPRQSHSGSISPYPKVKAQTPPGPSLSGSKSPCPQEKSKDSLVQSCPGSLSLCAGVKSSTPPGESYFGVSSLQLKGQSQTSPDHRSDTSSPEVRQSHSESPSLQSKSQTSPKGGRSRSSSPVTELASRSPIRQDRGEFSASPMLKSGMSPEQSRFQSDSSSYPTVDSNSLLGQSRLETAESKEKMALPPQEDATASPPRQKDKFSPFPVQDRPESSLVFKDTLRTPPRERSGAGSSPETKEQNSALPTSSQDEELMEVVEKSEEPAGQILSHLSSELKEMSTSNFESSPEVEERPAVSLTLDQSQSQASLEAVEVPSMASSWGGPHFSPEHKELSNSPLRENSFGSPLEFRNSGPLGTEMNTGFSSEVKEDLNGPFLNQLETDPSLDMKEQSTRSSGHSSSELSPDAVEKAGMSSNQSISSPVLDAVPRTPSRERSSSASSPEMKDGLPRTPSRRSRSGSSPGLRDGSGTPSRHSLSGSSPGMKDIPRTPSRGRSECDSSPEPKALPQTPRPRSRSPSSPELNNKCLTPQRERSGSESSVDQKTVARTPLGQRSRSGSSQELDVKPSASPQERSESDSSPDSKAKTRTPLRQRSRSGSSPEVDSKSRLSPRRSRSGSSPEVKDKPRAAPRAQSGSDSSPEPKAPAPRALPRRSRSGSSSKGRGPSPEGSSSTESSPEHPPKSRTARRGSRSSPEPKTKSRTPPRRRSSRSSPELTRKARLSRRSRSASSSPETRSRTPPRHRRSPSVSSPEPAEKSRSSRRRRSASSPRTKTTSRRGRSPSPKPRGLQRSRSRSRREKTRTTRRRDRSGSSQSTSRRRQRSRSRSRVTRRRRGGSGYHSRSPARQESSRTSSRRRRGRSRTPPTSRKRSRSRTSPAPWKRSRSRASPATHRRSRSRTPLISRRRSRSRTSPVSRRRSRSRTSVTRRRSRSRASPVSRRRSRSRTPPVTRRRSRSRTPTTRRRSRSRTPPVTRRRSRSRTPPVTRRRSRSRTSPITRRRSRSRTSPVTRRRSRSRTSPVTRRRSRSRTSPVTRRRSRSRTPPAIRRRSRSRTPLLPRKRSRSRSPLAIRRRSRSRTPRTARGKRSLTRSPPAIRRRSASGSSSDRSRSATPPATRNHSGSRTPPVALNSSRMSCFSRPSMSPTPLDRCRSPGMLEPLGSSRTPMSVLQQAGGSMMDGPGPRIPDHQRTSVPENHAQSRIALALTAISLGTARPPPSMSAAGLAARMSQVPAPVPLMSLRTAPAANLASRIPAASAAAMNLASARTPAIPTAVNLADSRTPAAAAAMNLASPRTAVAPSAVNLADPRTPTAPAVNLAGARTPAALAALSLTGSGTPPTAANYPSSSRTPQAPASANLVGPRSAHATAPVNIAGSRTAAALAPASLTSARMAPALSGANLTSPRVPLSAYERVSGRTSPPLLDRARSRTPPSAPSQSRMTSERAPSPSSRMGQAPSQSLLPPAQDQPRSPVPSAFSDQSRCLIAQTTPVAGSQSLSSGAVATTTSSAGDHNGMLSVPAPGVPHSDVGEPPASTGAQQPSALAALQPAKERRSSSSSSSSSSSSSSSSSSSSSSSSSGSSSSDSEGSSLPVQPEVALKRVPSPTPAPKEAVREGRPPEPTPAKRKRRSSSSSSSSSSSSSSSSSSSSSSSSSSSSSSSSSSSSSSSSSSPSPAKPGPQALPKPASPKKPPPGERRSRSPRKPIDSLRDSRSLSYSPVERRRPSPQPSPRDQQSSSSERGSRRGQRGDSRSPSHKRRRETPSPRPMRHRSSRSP

The EC50 is the midpoint of the concentration-response curve. Consider AAUAAA, for which the values for the EC50 in data set [1] and in data set [2] were 1040 nM and 116 nM, respectively.

Consider CUGUCCU, for which the EC50 in data set [3] amounted to 2240 nM.

(Values after the supplement of paper PMC6379048.)
